*1 amine or outer side, *2 acyl side, *3 side chain or, on linkers, in order; H or OH if unused. Bridges are numbered along the chain shown (N, C = ends). Where no end group is shown, it is not given here. The star is where a group is joined. X2 = (S)‑4‑Carboxy‑4‑(19-carboxynonadecanoylamino)butyryl, O=C(O)CCCCCCCCCCCCCCCCCCC(=O)N[C@@H](CCC(=O)*)C(=O)O; C20 diacid = O=C(O)CCCCCCCCCCCCCCCCCCC(=O)*; C18 diacid = O=C(O)CCCCCCCCCCCCCCCCC(=O)*; γGlu = O=C(O)[C@H](CCC(=O)[*:2])N[*:1]; AEEA = NCCOCCOCC(=O)O

The record followed here is US20110105394A1 (Novo Nordisk, published 2011).

B1: N-alpha-[(S)-4-Carboxy-4-(19-carboxynonadecanoylamino)butyryl]-Glu-Arg-[Glu1,Asp14,His17,Gln21,Ala25,Pro26,Ser28,Ser29]-pramlintide (peptide)
peptide: X2-ERECNTATCATQRLADFLHHSSQNFGAPLSSTNVGSNTY-NH2
modifications: disulfide 4-9
SMILES: CC(C)C[C@H](NC(=O)[C@H](CCCNC(=N)N)NC(=O)[C@H](CCC(N)=O)NC(=O)[C@@H](NC(=O)[C@H](C)NC(=O)[C@@H]1CSSC[C@H](NC(=O)[C@H](CCC(=O)O)NC(=O)[C@H](CCCNC(=N)N)NC(=O)[C@H](CCC(=O)O)NC(=O)CC[C@H](NC(=O)CCCCCCCCCCCCCCCCCCC(=O)O)C(=O)O)C(=O)N[C@@H](CC(N)=O)C(=O)N[C@@H]([C@@H](C)O)C(=O)N[C@@H](C)C(=O)N[C@@H]([C@@H](C)O)C(=O)N1)[C@@H](C)O)C(=O)N[C@@H](C)C(=O)N[C@@H](CC(=O)O)C(=O)N[C@@H](Cc1ccccc1)C(=O)N[C@@H](CC(C)C)C(=O)N[C@@H](Cc1c[nH]cn1)C(=O)N[C@@H](Cc1c[nH]cn1)C(=O)N[C@@H](CO)C(=O)N[C@@H](CO)C(=O)N[C@@H](CCC(N)=O)C(=O)N[C@@H](CC(N)=O)C(=O)N[C@@H](Cc1ccccc1)C(=O)NCC(=O)N[C@@H](C)C(=O)N1CCC[C@H]1C(=O)N[C@@H](CC(C)C)C(=O)N[C@@H](CO)C(=O)N[C@@H](CO)C(=O)N[C@H](C(=O)N[C@@H](CC(N)=O)C(=O)N[C@H](C(=O)NCC(=O)N[C@@H](CO)C(=O)N[C@@H](CC(N)=O)C(=O)N[C@H](C(=O)N[C@@H](Cc1ccc(O)cc1)C(N)=O)[C@@H](C)O)C(C)C)[C@@H](C)O
B2: N-alpha-[(S)-4-Carboxy-4-(19-carboxynonadecanoylamino)butyryl]-Glu-[Glu1,Arg17]-pramlintide (peptide)
peptide: EECNTATCATQRLANFLRHSSNNFGPILPPTNVGSNTY-NH2
modifications: disulfide 3-8; not fully specified (N-terminus); printed as N-alpha-[(S)-4-Carboxy-4-(19-carboxynonadecanoylamino)butyryl]-Glu-[Glu1,Arg17]-pramlintide
B3: N-alpha-[(S)-4-Carboxy-4-(19-carboxynonadecanoylamino)butyryl]-His-[His1,His17,Arg18]-pramlintide (peptide)
peptide: HHCNTATCATQRLANFLHRSSNNFGPILPPTNVGSNTY-NH2
modifications: disulfide 3-8; not fully specified (N-terminus); printed as N-alpha-[(S)-4-Carboxy-4-(19-carboxynonadecanoylamino)butyryl]-His-[His1,His17,Arg18]-pramlintide
B4: N-alpha-[2-(2-{2-[2-(2-{2-[(S)-4-Carboxy-4-(17-carboxyheptadecanoylamino)butyrylamino]ethoxy}ethoxy)acetylamino]ethoxy}ethoxy)acetyl][Arg1,His17]-pramlintide (peptide)
peptide: {C18 diacid-γGlu-AEEA-AEEA}-RCNTATCATQRLANFLHHSSNNFGPILPPTNVGSNTY-NH2
modifications: disulfide 2-7
SMILES: CC[C@H](C)[C@H](NC(=O)[C@@H]1CCCN1C(=O)CNC(=O)[C@H](Cc1ccccc1)NC(=O)[C@H](CC(N)=O)NC(=O)[C@H](CC(N)=O)NC(=O)[C@H](CO)NC(=O)[C@H](CO)NC(=O)[C@H](Cc1c[nH]cn1)NC(=O)[C@H](Cc1c[nH]cn1)NC(=O)[C@H](CC(C)C)NC(=O)[C@H](Cc1ccccc1)NC(=O)[C@H](CC(N)=O)NC(=O)[C@H](C)NC(=O)[C@H](CC(C)C)NC(=O)[C@H](CCCNC(=N)N)NC(=O)[C@H](CCC(N)=O)NC(=O)[C@@H](NC(=O)[C@H](C)NC(=O)[C@@H]1CSSC[C@H](NC(=O)[C@H](CCCNC(=N)N)NC(=O)COCCOCCNC(=O)COCCOCCNC(=O)CC[C@H](NC(=O)CCCCCCCCCCCCCCCCC(=O)O)C(=O)O)C(=O)N[C@@H](CC(N)=O)C(=O)N[C@@H]([C@@H](C)O)C(=O)N[C@@H](C)C(=O)N[C@@H]([C@@H](C)O)C(=O)N1)[C@@H](C)O)C(=O)N[C@@H](CC(C)C)C(=O)N1CCC[C@H]1C(=O)N1CCC[C@H]1C(=O)N[C@H](C(=O)N[C@@H](CC(N)=O)C(=O)N[C@H](C(=O)NCC(=O)N[C@@H](CO)C(=O)N[C@@H](CC(N)=O)C(=O)N[C@H](C(=O)N[C@@H](Cc1ccc(O)cc1)C(N)=O)[C@@H](C)O)C(C)C)[C@@H](C)O
B5: N-alpha-[(S)-4-Carboxy-4-(19-carboxynonadecanoylamino)butyryl]-[His17,Glu24]-pramlintide (2-37) (peptide)
peptide: {C20 diacid-γGlu}-CNTATCATQRLANFLHHSSNNFEPILPPTNVGSNTY-NH2
modifications: disulfide 1-6
SMILES: CC[C@H](C)[C@H](NC(=O)[C@@H]1CCCN1C(=O)[C@H](CCC(=O)O)NC(=O)[C@H](Cc1ccccc1)NC(=O)[C@H](CC(N)=O)NC(=O)[C@H](CC(N)=O)NC(=O)[C@H](CO)NC(=O)[C@H](CO)NC(=O)[C@H](Cc1c[nH]cn1)NC(=O)[C@H](Cc1c[nH]cn1)NC(=O)[C@H](CC(C)C)NC(=O)[C@H](Cc1ccccc1)NC(=O)[C@H](CC(N)=O)NC(=O)[C@H](C)NC(=O)[C@H](CC(C)C)NC(=O)[C@H](CCCNC(=N)N)NC(=O)[C@H](CCC(N)=O)NC(=O)[C@@H](NC(=O)[C@H](C)NC(=O)[C@@H]1CSSC[C@H](NC(=O)CC[C@H](NC(=O)CCCCCCCCCCCCCCCCCCC(=O)O)C(=O)O)C(=O)N[C@@H](CC(N)=O)C(=O)N[C@@H]([C@@H](C)O)C(=O)N[C@@H](C)C(=O)N[C@@H]([C@@H](C)O)C(=O)N1)[C@@H](C)O)C(=O)N[C@@H](CC(C)C)C(=O)N1CCC[C@H]1C(=O)N1CCC[C@H]1C(=O)N[C@H](C(=O)N[C@@H](CC(N)=O)C(=O)N[C@H](C(=O)NCC(=O)N[C@@H](CO)C(=O)N[C@@H](CC(N)=O)C(=O)N[C@H](C(=O)N[C@@H](Cc1ccc(O)cc1)C(N)=O)[C@@H](C)O)C(C)C)[C@@H](C)O
B6: N-alpha-[(S)-4-Carboxy-4-(19-carboxynonadecanoylamino)butyryl]-[Asp14,His17]-pramlintide (2-37) (peptide)
peptide: {C20 diacid-γGlu}-CNTATCATQRLADFLHHSSNNFGPILPPTNVGSNTY-NH2
modifications: disulfide 1-6
SMILES: CC[C@H](C)[C@H](NC(=O)[C@@H]1CCCN1C(=O)CNC(=O)[C@H](Cc1ccccc1)NC(=O)[C@H](CC(N)=O)NC(=O)[C@H](CC(N)=O)NC(=O)[C@H](CO)NC(=O)[C@H](CO)NC(=O)[C@H](Cc1c[nH]cn1)NC(=O)[C@H](Cc1c[nH]cn1)NC(=O)[C@H](CC(C)C)NC(=O)[C@H](Cc1ccccc1)NC(=O)[C@H](CC(=O)O)NC(=O)[C@H](C)NC(=O)[C@H](CC(C)C)NC(=O)[C@H](CCCNC(=N)N)NC(=O)[C@H](CCC(N)=O)NC(=O)[C@@H](NC(=O)[C@H](C)NC(=O)[C@@H]1CSSC[C@H](NC(=O)CC[C@H](NC(=O)CCCCCCCCCCCCCCCCCCC(=O)O)C(=O)O)C(=O)N[C@@H](CC(N)=O)C(=O)N[C@@H]([C@@H](C)O)C(=O)N[C@@H](C)C(=O)N[C@@H]([C@@H](C)O)C(=O)N1)[C@@H](C)O)C(=O)N[C@@H](CC(C)C)C(=O)N1CCC[C@H]1C(=O)N1CCC[C@H]1C(=O)N[C@H](C(=O)N[C@@H](CC(N)=O)C(=O)N[C@H](C(=O)NCC(=O)N[C@@H](CO)C(=O)N[C@@H](CC(N)=O)C(=O)N[C@H](C(=O)N[C@@H](Cc1ccc(O)cc1)C(N)=O)[C@@H](C)O)C(C)C)[C@@H](C)O
B7: N-alpha-[(S)-4-Carboxy-4-(19-carboxynonadecanoylamino)butyryl]-Glu-Arg-[Glu1,Arg17,Ala25,Pro26,Ser28,Ser29]-pramlintide (peptide)
peptide: X2-ERECNTATCATQRLANFLRHSSNNFGAPLSSTNVGSNTY-NH2
modifications: disulfide 4-9
SMILES: CC(C)C[C@H](NC(=O)[C@H](CCCNC(=N)N)NC(=O)[C@H](CCC(N)=O)NC(=O)[C@@H](NC(=O)[C@H](C)NC(=O)[C@@H]1CSSC[C@H](NC(=O)[C@H](CCC(=O)O)NC(=O)[C@H](CCCNC(=N)N)NC(=O)[C@H](CCC(=O)O)NC(=O)CC[C@H](NC(=O)CCCCCCCCCCCCCCCCCCC(=O)O)C(=O)O)C(=O)N[C@@H](CC(N)=O)C(=O)N[C@@H]([C@@H](C)O)C(=O)N[C@@H](C)C(=O)N[C@@H]([C@@H](C)O)C(=O)N1)[C@@H](C)O)C(=O)N[C@@H](C)C(=O)N[C@@H](CC(N)=O)C(=O)N[C@@H](Cc1ccccc1)C(=O)N[C@@H](CC(C)C)C(=O)N[C@@H](CCCNC(=N)N)C(=O)N[C@@H](Cc1c[nH]cn1)C(=O)N[C@@H](CO)C(=O)N[C@@H](CO)C(=O)N[C@@H](CC(N)=O)C(=O)N[C@@H](CC(N)=O)C(=O)N[C@@H](Cc1ccccc1)C(=O)NCC(=O)N[C@@H](C)C(=O)N1CCC[C@H]1C(=O)N[C@@H](CC(C)C)C(=O)N[C@@H](CO)C(=O)N[C@@H](CO)C(=O)N[C@H](C(=O)N[C@@H](CC(N)=O)C(=O)N[C@H](C(=O)NCC(=O)N[C@@H](CO)C(=O)N[C@@H](CC(N)=O)C(=O)N[C@H](C(=O)N[C@@H](Cc1ccc(O)cc1)C(N)=O)[C@@H](C)O)C(C)C)[C@@H](C)O
B8: N-alpha-[(S)-4-Carboxy-4-(19-carboxynonadecanoylamino)butyryl]-Glu-Arg-[Glu1,Asp14,His17,Ala25,Pro26,Ser28,Ser29]-pramlintide (peptide)
peptide: X2-ERECNTATCATQRLADFLHHSSNNFGAPLSSTNVGSNTY-NH2
modifications: disulfide 4-9
SMILES: CC(C)C[C@H](NC(=O)[C@H](CCCNC(=N)N)NC(=O)[C@H](CCC(N)=O)NC(=O)[C@@H](NC(=O)[C@H](C)NC(=O)[C@@H]1CSSC[C@H](NC(=O)[C@H](CCC(=O)O)NC(=O)[C@H](CCCNC(=N)N)NC(=O)[C@H](CCC(=O)O)NC(=O)CC[C@H](NC(=O)CCCCCCCCCCCCCCCCCCC(=O)O)C(=O)O)C(=O)N[C@@H](CC(N)=O)C(=O)N[C@@H]([C@@H](C)O)C(=O)N[C@@H](C)C(=O)N[C@@H]([C@@H](C)O)C(=O)N1)[C@@H](C)O)C(=O)N[C@@H](C)C(=O)N[C@@H](CC(=O)O)C(=O)N[C@@H](Cc1ccccc1)C(=O)N[C@@H](CC(C)C)C(=O)N[C@@H](Cc1c[nH]cn1)C(=O)N[C@@H](Cc1c[nH]cn1)C(=O)N[C@@H](CO)C(=O)N[C@@H](CO)C(=O)N[C@@H](CC(N)=O)C(=O)N[C@@H](CC(N)=O)C(=O)N[C@@H](Cc1ccccc1)C(=O)NCC(=O)N[C@@H](C)C(=O)N1CCC[C@H]1C(=O)N[C@@H](CC(C)C)C(=O)N[C@@H](CO)C(=O)N[C@@H](CO)C(=O)N[C@H](C(=O)N[C@@H](CC(N)=O)C(=O)N[C@H](C(=O)NCC(=O)N[C@@H](CO)C(=O)N[C@@H](CC(N)=O)C(=O)N[C@H](C(=O)N[C@@H](Cc1ccc(O)cc1)C(N)=O)[C@@H](C)O)C(C)C)[C@@H](C)O

This experiment addresses T1, Amylin 3(a) receptor (human calcitonin receptor (CTa) with RAMP-3) (human, UniProt P30988 25-474; O60896 24-148, limits assumed).
T1 sequence (looked up) 1: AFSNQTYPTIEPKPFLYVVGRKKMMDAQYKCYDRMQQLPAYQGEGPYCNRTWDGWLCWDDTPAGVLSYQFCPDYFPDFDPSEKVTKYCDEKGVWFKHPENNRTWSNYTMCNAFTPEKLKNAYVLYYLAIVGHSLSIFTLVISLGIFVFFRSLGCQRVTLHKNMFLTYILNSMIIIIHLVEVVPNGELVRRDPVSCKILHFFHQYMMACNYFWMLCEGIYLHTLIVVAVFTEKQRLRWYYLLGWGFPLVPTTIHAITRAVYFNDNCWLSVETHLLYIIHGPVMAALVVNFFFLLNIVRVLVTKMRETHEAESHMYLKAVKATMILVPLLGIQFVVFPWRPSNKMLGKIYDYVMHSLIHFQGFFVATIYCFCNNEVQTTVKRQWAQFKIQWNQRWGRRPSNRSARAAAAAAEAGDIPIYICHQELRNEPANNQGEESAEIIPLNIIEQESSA
T1 sequence (looked up) 2: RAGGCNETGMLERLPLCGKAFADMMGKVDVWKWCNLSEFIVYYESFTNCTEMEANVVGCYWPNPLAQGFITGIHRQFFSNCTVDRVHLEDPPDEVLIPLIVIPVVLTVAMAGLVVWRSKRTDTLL
In words: cell-based or functional assay.
Regarding B1, the “Potency Luciferase” value turned out to be 0.06 nM.
B2: the “Potency Luciferase” value worked out at 0.3 nM.
On to B3, for which the “Potency Luciferase” value was 0.2 nM.
On to B4, for which the “Potency Luciferase” value came out at 0.03 nM.
The value for B5 was 0.1 nM; that for B6 was 0.1 nM; that for B7 was 0.2 nM.
In the case of B8, the “Potency Luciferase” value was 0.6 nM.
